Measurements as given in the supplement of paper PMC10567573.

B1: CDS2 (parent)
chain: LIVVTQSHLVIHNLFEGMIWFIVP

Variants of: B1
Assay: protein stability index of a GFP-peptide fusion (GPS, HEK-293T) (PSI 1-6); higher = more stable
Settings: c terminus: a fixed tail appended
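Note: lentivirally expressed fusions sorted by FACS into six bins by GFP to DsRed ratio, PSI derived from sequencing read proportions per bin multiplied by bin number.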

Protein stability index: each site, then its substitutions
P24: D 2.06 | C 3.63 | R 3.1 | Y 2.3 | N 2.81 | F 2.52 | H 3.13 | W 3.81 | G 3.29 | V 2.65
V4: P 2.36 | K 4.3 | Q 2.74 | M 3.42 | R 3.46 | N 3.21 | S 4.44 | T 3.04 | F 2.09 | W 1.83 | G 3.49 | C 3.17 | D 3.18
L14: W 2.72 | G 3.6 | A 1.86 | Y 3.06 | V 2.71 | D 3.03 | Q 2.25 | I 3.44 | P 2.64 | E 2.99 | K 3.69 | F 2.92 | T 3.05
Q6: C 2.42 | M 1.77 | I 2.71 | S 2.58 | N 3.99 | L 4.3 | A 2.85 | T 2.85 | V 2.76 | D 4.07 | P 3.21 | E 2.59 | R 1.46
F21: V 2.39 | K 4.85 | R 2.94 | N 3.24 | I 3.28 | T 3.04 | L 3.42 | E 1.96 | Y 2.52 | W 1.6 | G 2.49 | S 2.8 | C 3.4
S7: Y 3.16 | R 4.35 | F 2.19 | V 3.79 | N 2.81 | H 2.31 | W 3.44 | K 2.27 | P 4.35 | L 3.2 | I 2.54 | T 4.59 | D 2.68 | G 3.76
V3: P 3.31 | R 2.14 | Q 2.14 | Y 2.91 | S 3.43 | G 3.92 | E 2.45 | I 3.46 | N 2.96 | W 4.23 | H 3.21 | F 3.18 | T 2.85 | L 2.57 | K 3.44
I22: W 3.42 | R 2.85 | A 2.07 | T 3.85 | Q 1.69 | D 4.26 | F 2.83 | K 3.07 | E 3.14 | S 3.28 | N 1.8 | L 3.99 | Y 2.27 | P 2.56 | M 3.27
L9: N 2.36 | A 2.29 | F 1.48 | Q 3.56 | T 3.82 | H 1.56 | S 1.96 | P 5.08 | D 2.62 | R 2.9 | I 1.84 | K 3.33 | Y 2.24 | W 2.91 | V 2.3
I19: G 3.67 | W 3.61 | K 2.41 | Q 3.36 | A 2.65 | L 1.84 | S 2.75 | P 3.75 | M 2.95 | F 2.89
L1: Q 4.19 | N 2.67 | T 4.15 | Y 3.07 | P 3.61 | S 3.83 | R 3.84 | V 3.56
V23: Y 3.02 | W 1.67 | T 3.31 | Q 1.52 | L 3.54 | N 2.51 | S 1.85 | C 3.47 | A 2.36 | E 4.22 | F 4.17 | I 2.9 | D 3.03
E16: P 2.48 | M 3.76 | Y 2.74 | N 3.06 | L 4.5 | K 2.35 | W 3.98 | I 3.46 | Q 2.01 | D 3.44 | G 2.9 | T 2.83 | F 2.52 | S 3.4 | A 4.16
